The DeepSol protein solubility set

Assay: soluble on expression in E. coli; label from the status in PepcDB or PDB records

| Sequence | soluble on expression in E. coli |
| --- | --- |
| MGSDKIHHHHHHMNPNFTWDDLQFFLAVARTGQLSTAARRLRTSHATVSRRIDRLEFALKVKLFERNPRGYVLTTMGQRFVETAERMERETEQLQLDISDGMTAQRGVVRLSTLEGFGNFFLADRLGEFAERYPNISLELVAIQQIMSLSRKEADIAVALAAPKAGAYHAEVLTPYTLHVYGARSYLAGQPPIRTRSDLGSHRFVGYIDDMIFTPGLDYLGEIQPGLRAHFQSSSILTQLKAVRQGLGLCVLPHFMAKDEPNLEIVLPDEIELKRTYWLICHRDLIAIPRVRAVRDFLVDAAVENRGCFLRETPFALTGPRRVLERQ | not soluble |
| MGSDKIHHHHHHTKKEISTQPIKVGVFDGHGGAQTCIWETVAAIRLDPEMEVRTITTADIANNALDSIDAIIIPGGSGKSQYLNLGTLNQQRIKDFIAKGKGAVGICAGAYLFSNTPDYTCIQLNGQQAIDIEHDNRGHGLAKFTLCEEGKKIFPELADRDTSFVIYYEGPVFINNPVDTIQSNTLAIMESDVHEEGNAPANMTNGKPFFVANNYGKGRVFSSIAHPEGTPGMMWMIPRMVRWTLNKPFIPYQSSAVRPDLFNHESLMATDDLKQEEKAFQILLSGESEQKVAALDWLEAHHSWDAKRWVQGLLYDASPAVRIRAARYIADTHYLPFLPNLQAAYRTETDKATQEELKTQLEKLTALLP | not soluble |
| MSRTQFEPAETYTAYTAYDEAYEAHEAYEAHEAYEAHETYERPAPYDLHSAPTLPYGGTYPSAPPPVHEPTVPALPRQSDGRAERRRRARGAGRADASLRRLVPRALVVAFLAGGTTAFVAKDKAVELTVDGSPRTLHTFADDVSELLAEEGVQVGAHDVIAPAPGTPLTSGEDVTVHHGRPVLLTLDGHRRQVWTTAGTVAGALRQLGVRTQGAYLSTGPSRRIGREGLALVVRTERVVTVMADGRTRTVRTNAATVGEVVEEAGITLRGEDTTSVPATGFPRDGQTVTVLRITGSQEVREDPIPFDERRAEDASLFRGTEVVQEAGRPGLRRTTYALRTVNGVRQKPRRLRTEVVREPSPRIVRVGTRPRPASVHGADHLNWQGLAACESGGRADAVDPSGTYGGLYQFDSATWHGLGGEGRPEDASAAEQTYRAQKLYVRSGADAWPHCGARLRELEHHHHHH | not soluble |
| MRKTFRQPHALAAMVIAMLMAQLSGCATTSAQTSPTEFGAGLPEAEDHSESAEPQSVEAEVIDERYADVWEKIQHARTIDVHDDAEVRKQRNFFDDKQKFMTQVTQRAEPFLYYIVSQLEARNMPLELALLPIVESGYNPLAQANGPAGLWQMIPATGRNFGLTINSAYDGRKDALASTDAVLDYLQHLYNTLGNDWINAVAGYNSGELVIKAAIDRNKAKGKPTDFWSLNIPARQVQTVPKWLAFIQIIREPSHYNLKVMPIANRPFLERLPAPNGVEISQIANAAGLTKAEFKTYNPGYRQSVIPSKGKYQIALPIENIGHYQENQHKLYAQKRYDSQTYIVKSGDSLGTIAAKFDLSVKELKQANNLTSDRLKIGQELTLLTPMAANDNEPEPVKTKANTDKSSTKANASSTKATSSKSTDKPVAKAKTYKVKSGDSLDKIARKSKVKLADLMKWNQLNAKSIIKPGQELKISELEHHHHHH | soluble |
| MGSDKIHHHHHHMSPLEMALLVHRGEFHLRELEPELPLEKFLKNADPKKTRKFLEKCGKEELERQKELIRKHNVKLVSFWEDDYPQHLREIRYPPAVLFVRGDAELLKEKCVGVVGTRRPTSYGVNVTKRFVKLLSEYFVIVSGMAFGIDSVAHKEALSSGGKTVAVLGTGVDVVYPRSNERLFHEIVKNGCVVSEYPMGTRARKHHFPARNRIIAGLSDAIIVTEAPIKSGALITVKFALESGRDVFAVPGDIDRKTSEGTNYLIKSGAYPLTDEEDLETHFGIRRIASPSLDDDKKKIYDLLRSSPKTVDELVEELGWSVSEVLRVISEMELMGMIWFDGGAYRLLG | not soluble |
| MAIEIKVPDIGADEVEITEILVKVGDKVEAEQSLITVEGDKASMEVPSPQAGIVKEIKVSVGDKTQTGALIMIFDSADGAADAAPAQAEEKKEAAPAAAPAAAAAKDVNVPDIGSDEVEVTEILVKVGDKVEAEQSLITVEGDKASMEVPAPFAGTVKEIKVNVGDKVSTGSLIMVFEVAGEAGAAAPAAKQEAAPAAAPAPAAGVKEVNVPDIGGDEVEVTEVMVKVGDKVAAEQSLITVEGDKASMEVPAPFAGVVKELKVNVGDKVKTGSLIMIFEVEGAAPAAAPAKQEAAAPAPAAKAEAPAAAPAAKAEGKSEFAENDAYVHATPLIRRLAREFGVNLAKVKGTGRKGRILREDVQAYVKEAIKRAEAAPAATGGGIPGMLPWPKVDFSKFGEIEEVELGRIQKISGANLSRNWVMIPHVTHFDKTDITELEAFRKQQNEEAAKRKLDVKITPVVFIMKAVAAALEQMPRFNSSLSEDGQRLTLKKYINIGVAVDTPNGLVVPVFKDVNKKGIIELSRELMTISKKARDGKLTAGEMQGGCFTISSIGGLGTTHFAPIVNAPEVAILGVSKSAMEPVWNGKEFVPRLMLPISLSFDHRVIDGADGARFITIINNTLSDIRRLVM | soluble |
| MEAGLDQSEIDERCECLKEVATSPAGRVLATDKQLDNLEQFISLVPGYIEKVRSHRVAVKAEEKRKAEEKRRQEEKEEEARKAREKQIEEERKAKEEQRANEERAKEERDRRALEVIVPPRQNSANSNINASVAFITNRLEMGSFSENNETVDRTIDTTATTVLSASSNAAQVDFVSFIKNSGEYLMVRKKKFPVDELVNNEKLGYPLGVTYDEKSKYWIICDRNLNKVLLMNVAESDVRVFEGPHLRNPTAVAVFEKGKSVVILCAPGNNQHVIYIYDFVDEIMHQFASHSDPLYNMKSQLRGLAISLGGNVLSLECSHAAAPKRLRIFKRDVGGKGFDIMGAKTPSFIASHNSKVAISDLGNNTVLIGNLIDTDWNKMSFSVLRIIETTQDLTLDQLANNNGFKFVSGMQFDTYGHLLIGDAKGHTIKLYDTDYKFLHRISSDFPLPYMSSFHISSSGEGIILDVHAQQKLHWVKMESIENITPWKAPPYQPKQSRENYQNRRF | not soluble |
| MGHHHHHHSHMFWRNPLPNIDHELQELLIDRGEDVPSEEEEEEENGFEDRKDDSDDDGGGWITPSNIKQIQQELEQCDVPEDVRVGCLTTDFAMQNVLLQMGLHVLAVNGMLIREARSYILRCHGCFKTTSDMSRVFCSHCGNKTLKKVSVTVSDDGTLHMHFSRNPKVLNPRGLRYSLPTPKGGKYAINPHLTEDQRFPQLRLSQKARQKTNVFAPDYIAGVSPFVENDISSRSATLQVRDSTLGAGRRRLNPNASRKKFVKKR | not soluble |
| DRLGQPPSGYGVLLSVHEDKTVDVFTSGRKMRLTCSPNIDTDTLALGQTVRLNEALTIVEAGTYEQVGEISTLREVLDDGLRALVVGHADEERIVWLAAPLAAVFADPEADIIAYDADSPTRKLRPGDSLLVDTKAGYAFERIPKAEVEDLVL | soluble |
| MNNSREDQWLQHYEQQNIQEITPCFNAINIASSSGSSLGDGGAAAHEAAGRRSRASRRAIPTTLLNANPSNFRALVQKFTGRSAGGESNRRKGPVTLDFGSPTTISKEAIFPVSSDRSNNNLDHVVNQHVSNEQRHVTWSGTESMMSYQLGEETNSAVYSSGYDDQDLPREYSGNSSYDESLDHMDYYQDFHRETATLEEFMMRDLDL | soluble |
| MSLAAYSLPVDVEAEDCTLGNGAVVTTNVYGTQYPGYSGDGFVWVANSGTITLEVTIPENGMYELSTRCWMYLGKEDETRMQVISINGKSHSNYFIPNKGQWIDYSFGFFYLEAGKATIEIGSSGSWGFILYDKIYFDHADMPDHIIDPTPCDPNATPETRALMKYLTSVYGKYVISGQQEIYGNGNDGNYELEFDYIYEKTGKYPAIRGFDFMNYNPLYGWEDGTTARIIDWVKNRGGIATACWHINIPRDFASYKLGEPVDWTNCTYKPTSSFNTANCLDETTKEHAYLMMAIEDLAEQLLILQEQNIPILFRPFHEAEGYNNTDGSGAWFWWGSAGAEVYKELWKLLYKTLTEKYGIHNLIWEVNLYTYANSYEWYPGDEYVDIIGYDKYEGSPNTWGTSAASSLFLTLVNYTNDTKMVALTENDVIPDIQNIVNEEAWWLYFCPWYGDFLMSPRYNDPVLLNTIYNSEYVITLDELPENLYEYDGEIPDINYGDLNNDGNINSTDYMILKKYILKVLERMNVPEKAADLNGDGSINSTDLTILKRFIMKAITKFPVTQKEGHHHHHH | soluble |
| GSHEATVEYLADLVKEKKHLTLFPHMFSNVERLLDDEIGRVRVALFQTEFPRVELPEPAG | soluble |
| MGPHSMRYFETAVSRPGLEEPRYISVGYVDNKEFVRFDSDAENPRYEPRAPWMEQEGPEYWERETQKAKGQEQWFRVSLRNLLGYYNQSAGGSHTLQQMSGCDLGSDWRLLRGYLQFAYEGRDYIALNEDLKTWTAADMAAQITRRKWEQSGAAEHYKAYLEGECVEWLHRYLKNGNATLLRTDSPKAHVTHHPRSKGEVTLRCWALGFYPADITLTWQLNGEELTQDMELVETRPAGDGTFQKWASVVVPLGKEQNYTCRVYHEGLPEPLTLRWEPPPST | soluble |
| MSLTGANDSNYDPFAGLSFRVGVAENKNTTFRNKMEDVHTYIANFAERVDWGYFAIFDGHAGKDTARWCGNNLHTLLEEEIDRNSDEGSPPPTPITGKDDLREDLYKCFVKADELIEKSGQGKSGCTAAVAVLRWESDNEEPVSHTKSQDGGKFDFKPTKNHKRLLYTSNVGDLRIVLCRAGQAYRLSYDHKATDTHEINRIEDNGGLVLKNRVNGVLAVTRSLGDTYMKLLVIGVPFTTATEITADDEFIIIACDGLWDVVSDKHACKLAAESFKQGYSPLQVAKKLCQFAIELSTTDNVTVMVVQLDNDVFSEGHHHHHH | soluble |
| MALKATIYKATVNVADLDRNQFLDASLTLARHPSETQERMMLRLLAWLKYADERLQFTRGLCADDEPEAWLRNDHLGIDLWIELGLPDERRIKKACTQAAEVALFTYNSRAAQIWWQQNQSKCAQFANLSVWYLDDEQLAKVSAFADRTMTL | not soluble |
| MRRNGSVPDLNKNDAFRRPPAPKGGVEKRKKGRASGLDGRQKRYVRGAESLGSVLNKEIQRRGWGKDIAGGWVTSNWEELVGAKIAQHTRVEMIKDKKLFITCDSTAWATNLRMMQRQILQVIAEKVGPNIITELRIFGPQAPSWRKGPLHVKGRGPRDTYG | not soluble |
| MHIEFREFNPFDVWIWLKFSNVPSEREKQYVEEVFNSWFYLGKLGAFNAENLQVQDTGLDISYMDYDPSAYNKSFLALMHNMSEFEYEGEWGRCWFDLGTSDAIALDLLLNSLTQLSEEYVTIEILYIGGENSDWPVEDSETHANADSIYDY | not soluble |
| MFILSAQRLSGTQVFRRLAEGCTGYSVSSGCRQRRRCCPGAPQRPRRVRVNALQLQSGLADPLDPKSEAEVREHLRSNSPAERALGINYARYLDESTRYDILLEMMEDTDPQVRYAAVTQLATVGSHDRQRTLKAVRKILWNTEEDASVRAGAADVLGGLRFHEAFPDLEKLFHESKDWVVRFSIIAALGEMGVREAFPILVEALHANKEPLVQLAAIGALGELGDERARVYLEPLVNSSDASIVERARFALDALDARGSERT | not soluble |
| MAHHHHHHMEENNQVEKNKGTNQLCFVKMLVNNLVAGSVIGKNGSIITSIENKTGCSLKLSPTNSYFPNTQERVLVLCGKQEQINNALLIILDKIRQITVQSFQDKQNMNTVPKYTCRIVIPKSAASAIIGKGGQQIKQLQDSTGAKIQISSREDGLNERIISIIGPFESISDTAIKVTNSIQNDPNLKDLLNVIYNKDTNMNGRSSLSQNFVNQVPLNGYVVPQQYGVFQHEQYMDVNMMNSLMRHSRDLFNLPCEISIQIPDEFIGSVIGKNGSRLTNIMNSTGAQIRISRKGELIPGTADRKVRIMGTVAAVHGAHVLLLQRLESVYMQLRTMQVKCDA | soluble |
